# Laboratory results published in patent publication US11298402B2, “Lysosomal degradation of lipids and proteins and method of use thereof” (University of Ottawa, priority 2015, dated 2022).
# How the values were obtained:
# [1] = tested on: mice; experiment: High fat diet and PO gavage for 10 days (palm oil-induced NASH mouse model); type: in vivo; settings: HFD and PO gavage 10 days; in comparison with Arl8b^Q75L-treated mice
# Experimental: For comparison, control mice were treated with Adv-MG1022 (a vector expressing Arl8b^Q75L) and then subjected to HFD and PO gavage for 10 days. (A) provides visceral views, and liver morphology views, of Arl8b^Q75L and Arl8b^T34N-treated mice, showing enhanced resistance to fatty liver and fat accumulation in Arl8b^T34N-treated mice. (B) provides images of liver sections stained with Oil Red O from mice subjected to a high fat diet and PO gavage for 10 days followed by treatment with Adv-MG1023 vector expressing Arl8b^T34N. For comparison, images of liver sections stained with Oil Red O obtained from mice treated with Adv-MG1022 (a vector expressing Arl8b^Q75L) and then subjected to HFD and PO gavage for 10 days are also provided.
# In FIG. 49, mice were subjected to a high fat diet and PO gavage for 10 days, followed by treatment with Adv-MG1023 vector expressing Arl8b^T34N. For comparison, mice were treated with Adv-MG1022 (a vector expressing Arl8b^Q75L; FIG. 46) and then subjected to HFD and PO gavage for 10 days. These experiments may be considered as palm oil-induced NASH mouse models. FIG. 49A provides visceral views, and liver morphology views, of Arl8b^Q75L and Arl8b^T34N-treated mice, showing enhanced resistance to fatty liver and fat accumulation in Arl8b^T34N-treated mice. […]
# [2] = tested on: McA-RH7777 cells (A18-C3); experiment: Autophagic flux (Cyto-ID assay); type: cell-based, rat
# Experimental: In certain non-limiting examples described herein, McA-RH7777 cells stably expressing human apoB-100 and human apoC-III (designated A18-C3) were used for the studies. […] In addition, these studies, particularly those concerning EPA- or DHA-triggered lysosomal motility and CLD degradation, were also performed using primary rat hepatocytes. Transfection of plasmids encoding proteins of interest, or transfection of siRNA specific for silencing target gene expression, was achieved using the FuGENE HP Extreme reagent (Roche). […] Quantification of cell lipid contents was achieved either by direct mass measurement (HPTLC) and counting the number of lipid droplets using Image J Lipid Droplet Counter Plug-In, or indirectly by Western blot analysis of cellular content of ADRP. Secretion of apoB and TG-rich lipoprotein was determined by Western blot analysis and metabolic labeling. Mitochondrial β-oxidation was measured using MitoSOX Red (Life Technologies) in situ. Autophagic flux was determined by using Cyto-ID assay (Enzo Life Science) and by monitoring GFP-LC3 clustering in situ. Interaction of Arl8b and subunits of the HOPS complex was determined in situ by the proximity ligation assay (Olink Biosience). Cytoplasmic pH was measured using the cytosolic pHrodo indicator reagent (Invitrogen). […]
# [3] = tested on: HCV core protein expressing cells; experiment: Imaging of HCV core protein expressing cells; type: cell-based
# From the text: This may be because the presence of HCV core protein may “lock” lysosomes onto the LD surface during the lysosomal engulfment process, resulting in scattered distribution of lysosomes throughout the cell cytoplasm. This situation is similar to that observed in cells after prolonged treatment with oleate (see FIG. 36, top row). White arrows indicate HCV core protein (pseudo-colored in green) and lysosomes (LysoTracker; blue) in association with LDs;
# FIG. 41 provides data illustrating the effect of Arl8b “DN” on HCV core distribution and interaction between lysosomes and lipid droplets.
# As shown in HCV core protein expressing cells (FIG. 41, left panel), the HCV core proteins (GFP-tagged) are bound to CLDs. The core protein binding to the CLDs apparently renders persistent lysosomal interaction with CLDs (i.e. kiss without run) and thus impaired microautophagy. As explained with reference to FIG. 39, functional microautophagy includes proper lysosomal engulfment (Kiss) and termination of this process, via lysosomal “go”, “interact”, and “back” events. As detailed herein, by introducing a putative GDP-bound form or Arl8b (Arl8b^T34N) into the HCV core protein-expressing cells, microautophagy functionality may be restored (FIG. 41, right panel). […]
molecule,measurement,setting,value
"Arl8b^T34N: putative GDP-bound, dominant negative Arl8b mutant (Thr-to-Asn at 34; SEQ ID NO: 12), expressed from plasmid or adenovirus Adv-MG1023; tagged forms used (protein, GFP/RFP tags in some forms; T34N substitution, GDP-binding, tagged forms used) MLALISRLLDWFRSLFWKEEMELTLVGLQYSGKNTFVNVIASGQFSEDMIPTVGFNMRKVTKGNVTIKIWDIGGQPRFRSMWERYCRGVNAIVYMIDAADREKIEASRNELHNLLDKPQLQGIPVLVLGNKRDLPNALDEKQLIEKMNLSAIQDREICCYSISCKEKDNIDITLQWLIQHSKSRRS",fatty liver disease arising from HFD,[1],enhanced resistance to fatty liver disease
same,autophagic flux upon EPA treatment in transfected cells,[2],does not induce autophagic flux
same,HCV core protein distribution on CLD,[3],displaced HCV core protein from the CLD surface
same,lysosome association with LD surface,[3],effectively displace lysosomes from LD surface
